PMC11157053

Target: T1, His6-LexA (Streptomyces mobaraensis NBRC 13819) (UniProt A0A5N5W758)
T1 sequence: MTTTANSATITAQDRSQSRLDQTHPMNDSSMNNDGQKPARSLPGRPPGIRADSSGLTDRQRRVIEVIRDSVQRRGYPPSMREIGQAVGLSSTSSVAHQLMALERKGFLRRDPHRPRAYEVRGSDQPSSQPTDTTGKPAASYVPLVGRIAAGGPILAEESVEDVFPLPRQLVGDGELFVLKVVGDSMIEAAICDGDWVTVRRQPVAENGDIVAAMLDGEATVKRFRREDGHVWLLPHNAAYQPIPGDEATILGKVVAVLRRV
Test: EMSA
Conditions: EMSA: 0, 100, 200 ng His6-LexA, 25 nM probe, 20 uL; 30 mM KCl, 10 mM Tris-HCl (pH not stated), 0.4 mM DTT, 2 mM MgCl2, 0.2 mM EDTA, 2% glycerol; 30 min, 30 C …

binding, binds:
CGGTGTGGAAGGTGGCGTGTACGGCATACGGATCGGAAGTGTCGTACCGCAGACCTGCGGGTACAGGCAGTGACGATTCGCTCGACACAACGAGGCGCAGGTGCAG (double strand) [Probe ssgA (106 bp)], CAGGCTGGTACTGATCGTCACCTGCGCGATTGGCGAGACACCTGCTGAGCAGACCGCCGCGGACCATCTCGGACACCTGCCCGACCGCTGCATTCGCCAACCGCCTCCGCACTCTCAACGACG (double strand) [Probe whiB (123 bp)], GAAAAGCGAACCAATTGGAATGTGGGGCCGGAACGGGAGGTCAGGCGTTCGACGTCACACTCCGCAGGGTACCGCTCACAGCCCGAAGCGGCGCTGGAGGTCTCCCAACTG (double strand) [Probe marR1 (112 bp)]
